What was measured:
human CLDN18.1 (human) [1] = molecular target: human CLDN18.1 (human) (UniProt P56856); assay: flow cytometry on CLDN18.1-HEK293 cells, 100 µg/mL antibody, replicate 2
human CLDN18.1 (human) [2] = molecular target: human CLDN18.1 (human) (UniProt P56856); assay: flow cytometry on CLDN18.1-HEK293 cells, 100 µg/mL antibody, replicate 3
human CLDN18.1 (human) [3] = molecular target: human CLDN18.1 (human) (UniProt P56856); assay: flow cytometry on CLDN18.1-HEK293 cells, 100 µg/mL antibody, replicate 1

human CLDN18.1 (human), sequence (P56856 whole entry): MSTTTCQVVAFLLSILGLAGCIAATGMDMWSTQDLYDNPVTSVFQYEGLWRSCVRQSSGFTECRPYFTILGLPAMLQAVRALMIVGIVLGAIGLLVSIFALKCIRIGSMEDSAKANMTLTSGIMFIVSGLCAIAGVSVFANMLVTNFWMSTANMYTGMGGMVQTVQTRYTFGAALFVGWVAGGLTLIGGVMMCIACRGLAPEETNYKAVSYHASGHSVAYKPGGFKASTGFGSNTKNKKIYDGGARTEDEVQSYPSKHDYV

positive rate of cell binding (human CLDN18.1 (human) [1]): 0.233% | positive rate of cell binding (human CLDN18.1 (human) [2]): 0.115% | positive rate of cell binding (human CLDN18.1 (human) [3]): 0.063%
Substance: hIgG1 isotype antibody

— US20220396616A1
